From patent publication US20120269817A1 (Bayer, published 2012)

T1: human tissue factor pathway inhibitor (TFPI) (human, UniProt P10646 29-304, limits assumed)
T1 construct: Bought protein; also called human TFPI; hTFPI
T1 sequence (looked up): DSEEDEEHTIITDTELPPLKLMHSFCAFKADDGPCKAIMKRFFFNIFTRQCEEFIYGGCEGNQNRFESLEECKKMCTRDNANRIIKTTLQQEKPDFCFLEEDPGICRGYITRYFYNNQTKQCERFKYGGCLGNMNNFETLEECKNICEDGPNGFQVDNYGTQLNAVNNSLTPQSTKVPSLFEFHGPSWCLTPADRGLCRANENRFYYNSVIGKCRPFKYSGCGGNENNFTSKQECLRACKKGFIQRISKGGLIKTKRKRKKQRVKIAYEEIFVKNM

T2: mouse tissue factor pathway inhibitor (TFPI) (mouse, UniProt O54819 29-289, limits assumed)
T2 construct: Bought protein; also called mouse TFPI; mTFPI
T2 sequence (looked up): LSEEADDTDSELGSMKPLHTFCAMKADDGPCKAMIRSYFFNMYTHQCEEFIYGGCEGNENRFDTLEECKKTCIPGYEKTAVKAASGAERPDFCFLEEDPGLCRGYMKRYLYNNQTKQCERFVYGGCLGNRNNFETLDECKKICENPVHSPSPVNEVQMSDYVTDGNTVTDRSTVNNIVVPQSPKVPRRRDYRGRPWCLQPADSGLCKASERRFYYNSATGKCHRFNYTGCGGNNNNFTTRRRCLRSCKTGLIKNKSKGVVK


Experiments:
BSA = molecular target: T3, BSA (bovine, UniProt P02769 25-607); assay: ELISA
T3 construct: also called bovine serum albumin
Protocol: (§1) To select antibody clones that bind to human TFPI, Fab genes of the phage clones from the second and third round of panning were subcloned into a bacterial expression vector and expressed in E. coli strain TG1. The bacterial lysate was added to the wells of the human TFPI-coated Maxisorp plates. After washing, HRP-conjugated goat anti-human Fab was used as a detection antibody and the plates were developed by adding AmplexRed (Invitrogen) with hydrogen peroxide. A signal of at least five-fold higher than the background was considered as positive. The cross reactivity of the anti-human TFPI antibodies to mouse TFPI was determined by a similar mouse TFPI-binding ELISA. The plates were coated with mouse TFPI (R&D System), BSA and lysozyme. The later two antigens were used as negative controls.

[1] = molecular target: T1, human tissue factor pathway inhibitor …; assay: ELISA, Fab lysate on coated human TFPI
Protocol: as §1

[2] = molecular target: T1, human tissue factor pathway inhibitor …; assay: ELISA, Fab on coated TFPI
Protocol: as §1
(§2) Purified Fab antibodies were used to determine EC₅₀ of anti-TFPI antibodies to human or mouse TFPI. EC₅₀ was assessed in an ELISA, similarly as described above. The results were analyzed using SoftMax. The binding affinity of anti-TFPI antibodies was determined in a Biacore assay. Briefly, the antigen, either human or mouse TFPI, was immobilized on the CM5-chips using the amine coupling kit (GE HealthCare) according to the instructions of the manufacturer. The amount of immobilized TFPI was adjusted to the mass of the antigen to give approximate 300 RU. The antibody Fabs were analyzed in mobile phase and at least five different concentrations (0.1, 0.4, 1.6, 6.4 and 25 nM) of the purified antibodies were used in the Biacore assay. The kinetics and binding affinity were calculated using Biacore T100 Evaluation software.

[3] = molecular target: T2, mouse tissue factor pathway inhibitor …; assay: ELISA, Fab on coated TFPI
Protocol: as §1, §2

[4] = molecular target: T1, human tissue factor pathway inhibitor …; assay: cell-based or functional assay
[5] = molecular target: T1, human tissue factor pathway inhibitor …; assay: Biacore, TFPI on CM5 chip, Fab in mobile phase
Protocol: as §2

[6] = molecular target: T2, mouse tissue factor pathway inhibitor …; assay: Biacore, TFPI on CM5 chip, Fab in mobile phase
Protocol: as §2

T3 sequence (P02769 25-607 limits assumed): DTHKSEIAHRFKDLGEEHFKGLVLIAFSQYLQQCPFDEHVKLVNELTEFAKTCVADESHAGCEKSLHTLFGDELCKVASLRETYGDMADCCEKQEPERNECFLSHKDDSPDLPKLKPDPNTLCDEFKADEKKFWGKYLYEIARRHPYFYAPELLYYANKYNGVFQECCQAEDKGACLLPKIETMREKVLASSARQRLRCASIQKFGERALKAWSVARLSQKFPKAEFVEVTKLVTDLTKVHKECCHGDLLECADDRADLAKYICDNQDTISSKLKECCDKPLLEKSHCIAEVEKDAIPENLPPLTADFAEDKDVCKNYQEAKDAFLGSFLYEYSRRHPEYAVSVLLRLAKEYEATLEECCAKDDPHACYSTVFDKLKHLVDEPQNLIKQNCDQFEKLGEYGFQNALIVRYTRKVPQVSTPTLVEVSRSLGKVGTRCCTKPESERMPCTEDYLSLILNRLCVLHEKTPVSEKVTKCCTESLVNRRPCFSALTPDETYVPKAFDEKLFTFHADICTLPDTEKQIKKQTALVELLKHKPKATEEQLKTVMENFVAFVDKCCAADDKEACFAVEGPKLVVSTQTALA

Binder	binding result (BSA)	binding result [1]	EC50 [2] [nM]	EC50 [3] [nM]	% inhibition of hTFPI activity [4] [%]	dPT in hemoA plasma [4] [s]	Kd [5] [nM]	Kd [6] [nM]
TP-3F2 Fab (Fab, V domains shown, Human Fab from HuCal Gold, expressed in E. coli TG1) VH: QVQLVESGGGLVQPGGSLRLSCAASGFTFSSYSMHWVRQAPGKGLEWVSGISYSSSFTYYADSVKGRFTISRDNSKNTLYLQMNSLRAEDTAVYYCARALGGGVDYWGQGTLVTVSS VL: DIELTQPPSVSVAPGQTARISCSGDNLPSKSVYWYQQKPGQAPVLVIYGDNNRPSGIPERFSGSNSGNTATLTISGTQAEDEADYYCQSWTSRPMVVFGGGTKLTVLG	no binding	binds						
TP-2H10 Fab (Fab, V domains shown, Human Fab from HuCal Gold, expressed in E. coli TG1) VH: QVQLQQSGPGLVKPSQTLSLTCAISGDSVSSNGAAWGWIRQSPGRGLEWLGFIYRRSKWYNSYAVSVKSRITINPDTSKNQFSLQLNSVTPEDTAVYYCARQDGMGGMDSWGQGTLVTVSS VL: not shown	no binding		2.18	32.4	63	79.5	10.2	11.5
TP-3C2 Fab (Fab, V domains shown, Human Fab from HuCal Gold, expressed in E. coli TG1) VH: QVQLQQSGPGLVKPSQTLSLTCAISGDSVSSSSAAWSWIRQSPGRGLEWLGMIYYRSKWYNHYAVSVKSRITINPDTSKNQFSLQLNSVTPEDTAVYYCARGGSGVMDVWGQGTLVTVSS VL: DIQMTQSPSSLSASVGDRVTITCRASQSITNYLNWYQQKPGKAPKLLIYDVSNLQSGVPSRFSGSGSGTDFTLTISSLQPEDFAVYYCQQYSGYPLTFGQGTKVEIKR	no binding		59	957	92	68.9	17.1	28.5
TP-2G6 Fab (Fab, V domains shown, Human Fab from HuCal Gold, expressed in E. coli TG1) VH: QVQLQQSGPGLVKPSQTLSLTCAISGDSVSSSSAAWSWIRQSPGRGLEWLGIIYYRSKWYNDYAVSVKSRITINPDTSKNQFSLQLNSVTPEDTAVYYCARHSMVGFDVWGQGTLVTVSS VL: DIVLTQSPATLSLSPGERATLSCRASQYVTSSYLAWYQQKPGQAPRLLIYGSSRATGVPARFSGSGSGTDFTLTISSLEPEDFATYYCQQYSSSPITFGQGTKVEIKR	no binding		0.48	5.18	86	62.8	5.06	46.1
TP-3B4 Fab (Fab, V domains shown, Human Fab from HuCal Gold, expressed in E. coli TG1) VH: QVQLQQSGPGLVKPSQTLSLTCAISGDSVSSNGAAWGWIRQSPGRGLEWLGHIYYRSKWYNSYAVSVKSRITINPDTSKNQFSLQLNSVTPEDTAVYYCARWGGIHDGDIYFDYWGQGTLVTVSS VL: DIQMTQSPSSLSASVGDRVTITCRASQNISNYLNWYQQKPGKAPKLLIYGTSSLQSGVPSRFSGSGSGTDFTLTISSLQPEDFAVYYCQQYGNNPTTFGQGTKVEIKR	no binding		35.8	34.6	25	69.1	14.1	20.4
TP-2A8 Fab (Fab, V domains shown, Human Fab from HuCal Gold, expressed in E. coli TG1; also called Fab-2A8) VH: QVQLVESGGGLVQPGGSLRLSCAASGFTFRSYGMSWVRQAPGKGLEWVSSIRGSSSSTYYADSVKGRFTISRDNSKNTLYLQMNSLRAEDTAVYYCARKYRYWFDYWGQGTLVTVSS VL: DIELTQPPSVSVAPGQTARISCSGDNLRNYYAHWYQQKPGQAPVVVIYYDNNRPSGIPERFSGSNSGNTATLTISGTQAEDEADYYCQSWDDGVPVFGGGTKLTVLG	no binding		0.09	0.06	100	57.9	1.25	3.08
TP-3E1 Fab (Fab, V domains shown, Human Fab from HuCal Gold, expressed in E. coli TG1) VH: QVQLVESGGGLVQPGGSLRLSCAASGFTFSNYAMTWVRQAPGKGLEWVSVISSVGSNTYYADSVKGRFTISRDNSKNTLYLQMNSLRAEDTAVYYCARPTKAGRTWWWGPYMDVWGQGTLVTVSS VL: DIELTQPPSVSVAPGQTARISCSGDNIGSYYAYWYQQKPGQAPVLVIYDDSNRPSGIPERFSGSNSGNTATLTISGTQAEDEADYYCQSYDSTGLLVFGGGTKLTVLG	no binding	binds						
TP-4A7 Fab (Fab, V domains shown, Human Fab from HuCal Gold, expressed in E. coli TG1) VH: QVQLVESGGGLVQPGGSLRLSCAASGFTFRNYAMNWVRQAPGKGLEWVSVISGSSSYTYYADSVKGRFTISRDNSKNTLYLQMNSLRAEDTAVYYCARADLPYMVFDYWGQGTLVTVSS VL: DIELTQPPSVSVAPGQTARISCSGDALGSKFAHWYQQKPGQAPVLVIYDDSERPSGIPERFSGSNSGNTATLTISGTQAEDEADYYCQAYDSGLLYVFGGGTKLTVLG	no binding	binds						
TP-2G5 Fab (Fab, V domains shown, Human Fab from HuCal Gold, expressed in E. coli TG1) VH: QVQLQQSGPGLVKPSQTLSLTCAISGDSVSSNSAAWSWIRQSPGRGLEWLGFIYYRSKWYNDYAVSVKSRITINPDTSKNQFSLQLNSVTPEDTAVYYCARHNPDLGFDYWGQGTLVTVSS VL: not shown	no binding		343	871	36	73.2	42.1	16.1
TP-3D3 Fab (Fab, V domains shown, Human Fab from HuCal Gold, expressed in E. coli TG1) VH: QVQLVESGGGLVQPGGSLRLSCAASGFTFSSYASWVRQAPGKGLEWVSGISGDGSNTHYADSVKGRFTISRDNSKNTLYLQMNSLRAEDTAVYYCARYDNFYFDVWGQGTLVTVSS VL: DIELTQPPSVSVAPGQTARISCSGDSLGSKFAHWYQQKPGQAPVLVIYDDSNRPSGIPERFSGSNSGNTATLTISGTQAEDEADYYCSTYTSRSHSYVFGGGTKLTVLG	no binding	binds						
TP-2B3 Fab (Fab, V domains shown, Human Fab from HuCal Gold, expressed in E. coli TG1) VH: QVQLQQSGPGLVKPSQTLSLTCAISGDSVSSNSAAWGWIRQSPGRGLEWLGMIYYRSKWYNSYAVSVKSRITINPDTSKNQFSLQLNSVTPEDTAVYYCARTMSKYGGPGMDVWGQGTLVTVSS VL: DIVLTQSPATLSLSPGERATLSCRASQNIGSNYLAWYQQKPGQAPRLLIYGASTRATGVPARFNGSGSGTDFTLTISSLEPEDFAVYYCQQLNSIPVTFGQGTKVEIKR	no binding		0.84	20.2	100	74	7.4	27
TP-3H2 Fab (Fab, V domains shown, Human Fab from HuCal Gold, expressed in E. coli TG1) VH: QVQLVESGGGLVQPGGSLRLSCAASGFTFNSYYMSWVRQAPGKGLEWVSNISSSGSNTNYADSVKGRFTISRDNSKNTLYLQMNSLRAEDTAVYYCARVHYGFDFWGQGTLVTVSS VL: DIELTQPPSVSVAPGQTARISCSGDKLGKYYAYWYQQKPGQAPVLVIYGDSKRPSGIPERFSGSNSGNTATLTISGTQAEDEADYYCSSAAFGSTVFGGGTKLTVLG	no binding	binds						
TP-2A5.1 Fab (Fab, V domains shown, Human Fab from HuCal Gold, expressed in E. coli TG1) VH: QVQLVESGGGLVQPGGSLRLSCAASGFTFSSYGSWVRQAPGKGLEWVSVISGSGSSTYYADSVKGRFTISRDNSKNTLYLQMNSLRAEDTAVYYCARVNISTHFDVWGQGTLVTVSS VL: DIELTQPPSVSVAPGQTARISCSGDNIPEKYVHWYQQKPGQAPVLVIHGDNNRPSGIPERFSGSNSGNTATLTISGTQAEDEADYYCQSFDAGSYFVFGGGTKLTVLG	no binding		28.6	14.5	30	70.8	35.4	19.6
